B1: clone B1: anti-DLL4 nanobody isolated from the yeast library, SEQ ID NO: 12 (protein)
VHH: QVQLQESGGGLVQAGGSLRLSCAASGTIFYSSDMGWYRQAPGKEREFVAGINRGSTTYYADSVKGRFTISRDNAKNTVYLQMNSLKPEDTAVYYCAVVSDVLTRLFYWGQGTQVTVSSGSYPYDVPDYAQTSSPSTEAS
B2: clone A8: anti-DLL4 nanobody isolated from the yeast library, SEQ ID NO: 4 (protein)
VHH: QVQLQESGGGLVQAGGSLRLSCAASGTIFEERVMGWYRQAPGKEREFVAGIASGAITYYADSVKGRFTISRDNAKNTVYLQMNSLKPEDTAVYYCAAQGYSFKTKPDYSAYVLVYWGQGTQVTVSSGSYPYDVPDYAQTSSPSTEAS
B3: clone B4: anti-DLL4 nanobody isolated from the yeast library, SEQ ID NO: 16 (protein)
VHH: QVQLQESGGGLVQAGGSLRLSCAASGNISVWIPMGWYRQAPGKEREFVASIGEGSTTYYADSVKGRFTISRDNAKNTVYLQMNSLKPEDTAVYYCAVPYYGHSDYDYWGQGTQVTVSSGSYPYDVPDYAQTSSPSTEAS
B4: Nb.d4C4v2: affinity-matured variant of the C4 nanobody, SEQ ID NO: 39 (SEQ ID NO: 41 with flanking sequence) (protein)
VHH: QVQLQESGGGLVQAGGSLRLSCAASGSISGDVEMGWYRQAPGKEREFVAGINDGGNIYYADNVEGRFTISRDNAKNTVYLQMNSLKPEDTAVYYCAVSTTYPSYNESQYADWIAYWGQGAQVTVSS
B5: clone A9: anti-DLL4 nanobody isolated from the yeast library, SEQ ID NO: 8 (protein)
VHH: QVQLQESGGGLVQAGGSLRLSCAASGTISQDSGMGWYRQAPGKEREFVAGITAGSITYYADSVKGRFTISRDNAKNTVYLQMNSLKPEDTAVYYCAASYVSVQAHTYWGQGTQVTVSSGSYPYDVPDYAQTSSPSTEAS
B6: clone C2: anti-DLL4 nanobody isolated from the yeast library, SEQ ID NO: 28 (protein)
VHH: QVQLQESGGGLVQAGGSLRLSCAASGSISVVYGMGWYRQAPGKEREFVAGISYGGSTYYADSVKGRFTISRDNAKNTVYLQMNSLKPEDTAVYYCAVDASYWDTLVYWGQGTQVTVSSGSYPYDVPDYAQTSSPSTEAS
B7: clone A7: anti-DLL4 nanobody isolated from the yeast library, SEQ ID NO: 24 (protein)
VHH: QVQLQESGGGLVQAGGSLRLSCAASGNIFYTYSMGWYRQAPGKEREFVAAISAGTITYYADSVKGRFTISRDNAKNTVYLQMNSLKPEDTAVYYCAVFAPRDVIHYYWGQGTQVTVSSGSYPYDVPDYAQTSSPSTEAS
B8: clone C4: anti-DLL4 nanobody isolated from the yeast library, SEQ ID NO: 32; nanobody d4C4 SEQ ID NO: 36 (protein)
VHH: QVQLQESGGGLVQAGGSLRLSCAASGSISGDVEMGWYRQAPGKEREFVAGINDGGNTYYADSVKGRFTISRDNAKNTVYLQMNSLKPEDTAVYYCAVSTTYPSYNESQYADWLAYWGQGTQVTVSSGSYPYDVPDYAQTSSPSTEAS
B9: clone C5: anti-DLL4 nanobody isolated from the yeast library, SEQ ID NO: 20 (protein)
VHH: QVQLQESGGGLVQAGGSLRLSCAASGNISTGTAMGWYRQAPGKEREFVAGIAYGATTYYADSVKGRFTISRDNAKNTVYLQMNSLKPEDTAVYYCAVEVSQSTPGGRYSVAYLIYWGQGTQVTVSSGSYPYDVPDYAQTSSPSTEAS

How the values were obtained:
mouse DLL4 = target: T1, mouse DLL4 (Mus musculus, UniProt Q9JI71); experiment: Yeast-displayed nanobody clones stained with biotinylated mDLL4 and SA-647, flow cytometry; assay type: binding; conditions: yeast display, biotinylated mDLL4 (N-EGF3), SA-647, FIG. 1
T1 construct: The mDLL4 protein was a truncation that contained the C2, DSL, and EGF1-3 domains (DLL4 (N-EGF3)); biotin (protein is biotinylated)
T1 sequence (Q9JI71 27-323 limits assumed): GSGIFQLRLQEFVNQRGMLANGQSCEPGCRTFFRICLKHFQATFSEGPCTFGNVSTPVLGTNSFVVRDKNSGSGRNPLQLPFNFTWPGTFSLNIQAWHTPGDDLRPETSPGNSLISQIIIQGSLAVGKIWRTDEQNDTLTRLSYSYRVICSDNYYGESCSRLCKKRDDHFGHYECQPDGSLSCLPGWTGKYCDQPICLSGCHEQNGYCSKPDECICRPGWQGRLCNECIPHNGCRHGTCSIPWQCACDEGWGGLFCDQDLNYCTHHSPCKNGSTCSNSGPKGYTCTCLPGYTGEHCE
Method: 162. To isolate binding molecules that interrupted the interaction of DLL4 and Notch1, we performed several rounds of selection using decreasing concentrations of biotinylated murine DLL4 protein. The mDLL4 protein was a truncation that contained the C2, DSL, and EGF1-3 domains (DLL4 (N-EGF3)). To perform a selection, the library was stained with biotinylated mDLL4, washed, incubated with streptavidin-647, washed, and then binders isolated selected using either (a) magnetic beads coated with an anti-647 antibody or (b) FACS. The mDLL4-binding yeast were then plated so that individual colonies could be picked and cultured to isolate individual clones. The clones were then each stained with mDLL4 and SA-647 and analyzed by flow cytometry to confirm that they bound to mDLL4. (FIG. 1).

DLL4 [1] = target: T2, DLL4 (Homo sapiens, UniProt Q9NR61); experiment: Cross-reactivity: yeast expressing each nanobody stained with biotinylated human DLL4 (N-EGF3), flow cytometry; assay type: binding; set-up: stained with biotinylated human DLL4 (N-EGF3); biotin (protein is biotinylated); conditions: yeast display, SA-647, FIG. 2
Method: 163. The eight anti-DLL4 nanobody clones were then tested for cross-reactivity between human and mouse DLL4. Yeast cells expressing each nanobody were stained with biotinylated human DLL4 (N-EGF3), washed, stained with SA-647, and then analyzed by flow cytometry.
Target sequence in this assay (Q9NR61 27-322 limits assumed): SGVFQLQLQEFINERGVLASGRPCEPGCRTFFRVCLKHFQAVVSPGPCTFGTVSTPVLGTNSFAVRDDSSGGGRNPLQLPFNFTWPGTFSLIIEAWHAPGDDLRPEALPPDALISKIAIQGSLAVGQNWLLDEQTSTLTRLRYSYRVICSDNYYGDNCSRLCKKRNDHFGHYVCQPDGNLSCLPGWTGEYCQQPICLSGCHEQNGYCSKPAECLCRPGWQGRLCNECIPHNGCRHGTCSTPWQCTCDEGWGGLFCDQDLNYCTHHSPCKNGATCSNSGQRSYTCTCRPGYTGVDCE

hNotch1 = experiment: Inhibition in plate-bound and co-culture formats with CHO-hNotch1 reporter cell line; assay type: cell-based, human; conditions: preliminary
Text: (§1) 168. We the investigated the C4 nanobody following affinity maturation and found a second nanobody Nb.d4C4v2. To identify the similarity between the parent C4 and the variant C4v2 clone the sequences of each nanobody was compared (FIG. 7). We also investigated the affinity of the C4 nanobody. […] Moreover, inhibition in plate-bound and co-culture formats in the presence of CHO-hNotch1 reporter cell line and with or without cells expressing DLL4 indicate a low-nanomolar IC50 similar to DAPT, indicating affinity-matured Nb.d4C4v2 is a clinical candidate (FIGS. 9 and 10).

hDLL4: hNotch1 complexes = hDLL4: hNotch1 complexes (Homo sapiens, UniProt Q9NR61); experiment: Yeast expressing nanobody stained with unlabeled hDLL4 + biotinylated hNotch1 (6-13), flow cytometry (inhibition of hNotch1 binding to hDLL4); conditions: FIG. 3
hDLL4: hNotch1 complexes, sequence (Q9NR61 27-322 limits assumed, one chain of several): as the sequence (Q9NR61 27-322 limits assumed) above
Method: (§2) 164. Next, we tested four cross-reactive nanobodies (A7, C4, C5, and B1) for their ability to inhibit binding of hNotch1 to hDLL4 (FIG. 3). Yeast expressing each nanobody were stained with either biotinylated hDLL4 (N-3) or unlabled hDLL4+biotinylated hNotch1 EGF domains 6-13 (hNotch1 (6-13)). The yeast were then washed, incubated with SA-647, and analyzed by flow cytometry.

DLL4 [2] = target: T2, DLL4; experiment: SPR monomer affinity; assay type: binding; conditions: preliminary, FIG. 8
Text: as §1
Target sequence in this assay (Q9NR61 27-685, species assumed): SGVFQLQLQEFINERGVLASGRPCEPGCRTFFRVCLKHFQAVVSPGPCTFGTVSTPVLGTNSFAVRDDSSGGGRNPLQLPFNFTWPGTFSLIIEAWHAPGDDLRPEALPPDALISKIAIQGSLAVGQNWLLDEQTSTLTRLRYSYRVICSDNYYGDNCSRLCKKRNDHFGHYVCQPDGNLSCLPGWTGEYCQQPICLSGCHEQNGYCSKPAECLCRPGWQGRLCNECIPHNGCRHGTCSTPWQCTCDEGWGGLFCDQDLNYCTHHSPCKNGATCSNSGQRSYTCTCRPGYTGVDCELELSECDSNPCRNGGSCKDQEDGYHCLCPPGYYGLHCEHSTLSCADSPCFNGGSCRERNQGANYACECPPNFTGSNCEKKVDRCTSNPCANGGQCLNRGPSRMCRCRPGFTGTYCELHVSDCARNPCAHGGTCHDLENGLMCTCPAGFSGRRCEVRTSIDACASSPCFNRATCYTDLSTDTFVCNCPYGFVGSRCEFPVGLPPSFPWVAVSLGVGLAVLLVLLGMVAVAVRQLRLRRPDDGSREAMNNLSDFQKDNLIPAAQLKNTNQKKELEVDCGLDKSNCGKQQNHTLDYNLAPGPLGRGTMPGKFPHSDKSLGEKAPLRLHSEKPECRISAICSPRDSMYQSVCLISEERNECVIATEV

DLL4 [3] = target: T2, DLL4; experiment: Yeast expressing nanobody stained with biotinylated hDLL4 (N-3) alone, flow cytometry; assay type: binding; set-up: stained with biotinylated human DLL4 (N-EGF3); conditions: yeast display, FIG. 3
Method: as §2
Target sequence in this assay (Q9NR61 27-322 limits assumed): as the sequence (Q9NR61 27-322 limits assumed) above

[4] = tested on: DLL4-mediated Notch activation (hNotch1); experiment: Plate-bound ligand stimulation assay, Notch1 H2B-citrine reporter cells on recombinant human DLL4; assay type: cell-based; conditions: nanobody-Fc fusions, plates coated with human DLL4 (C2, DSL, EGF1-5), FIG. 6
Text: 167. To determine if the C4 and C5 nanobodies inhibit DLL4-mediated Notch activation. Notch1 reporter H2B-citrine reporter cells were transferred to 96-well plates coated with recombinant human DLL4 protein containing the C2, DSL, and EGF1-5 domains in the presence or absence of nanobody-Fc fusions.

Molecule | binding to mouse DLL4 (mouse DLL4) | cross-reactivity with human DLL4 (DLL4 [1]) | other results
B1 | bound mouse DLL4 | cross reacted with human DLL4 | –
B2 | bound mouse DLL4 | – | –
B3 | bound mouse DLL4 | – | –
B4 | – | – | IC50 (hNotch1; CHO-hNotch1 reporter cell line and cells expressing DLL4, similar to DAPT, FIG. 10): low-nanomolar; IC50 (hNotch1; CHO-hNotch1 reporter cell line, without cells expressing DLL4, similar to DAPT, FIG. 9): low-nanomolar
B5 | bound mouse DLL4 | – | –
B6 | bound mouse DLL4 | – | –
B7 | bound mouse DLL4 | cross reacted with human DLL4 | –
B8 | – | cross reacted with human DLL4 | binding to hDLL4: hNotch1 complexes (hDLL4: hNotch1 complexes): not to hDLL4: hNotch1 complexes; monomer affinity (DLL4 [2]): low nanomolar to picomolar range; binding to hDLL4 alone (DLL4 [3]): bound robustly; reduction in reporter activity (hNotch1 activation) [4]: dose-dependent reduction in reporter activity
B9 | bound mouse DLL4 | cross reacted with human DLL4 | binding to hDLL4: hNotch1 complexes (hDLL4: hNotch1 complexes): not to hDLL4: hNotch1 complexes; binding to hDLL4 alone (DLL4 [3]): bound robustly; reduction in reporter activity (hNotch1 activation) [4]: dose-dependent reduction in reporter activity
